{"source": "patent US20240117061A1", "about": "(WUHAN YZY BIOPHARMA, published 2024)", "key": {"[1]": {"biological_target": "T1, human BCMA on cells (NCI-H929, U266B1, HEK293 huBCMA) (human, UniProt Q02223 1-184)", "T1 construct": "whole, on cells; also called cell surface BCMA antigen", "T1 sequence (looked up)": "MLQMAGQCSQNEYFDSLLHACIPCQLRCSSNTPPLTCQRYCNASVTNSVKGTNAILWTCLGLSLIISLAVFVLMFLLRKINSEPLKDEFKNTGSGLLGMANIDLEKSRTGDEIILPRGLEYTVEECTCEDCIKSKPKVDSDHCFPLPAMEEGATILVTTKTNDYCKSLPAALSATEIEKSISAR", "assay": "flow cytometry on NCI-H929 cells", "method": "Procedures: Preparation of cell suspensions: The cells were resuspended in PBS, and the cell density was adjusted to 2×10⁵ cells/well. Mouse antibodies were added to a 96-well plate at […] and serially 3-fold diluted from 3000 nM. The plate was incubated for 1 h at 4° C. 150 μL of precooled PBS containing 1% of FBS was added into the 96-well plate after the co-incubation with the primary antibody was finished. The mixtures were centrifuged at 300×g for 5 min and the supernatants were discarded. The above procedures were repeated once. The fluorescent secondary antibody PE […] (Biolegend, 409304) was added at 80 μL/well. The plate was incubated at 4° C. for 30 min. 150 μL of precooled PBS containing 1% of FBS was added into the 96-well plate after the co-incubation with the secondary antibody was finished. The mixtures were uniformly mixed with a pipette. The 96-well plate was centrifuged at 300×g for 5 min in a plate centrifuge and the supernatants were removed. The above procedures were repeated once. The cells were resuspended in 100 μL of PBS containing 1% of FBS and detected on a flow cytometry (BD Accuri™ C6)."}, "[2]": {"biological_target": "T2, recombinant human BCMA-mFc fusion protein (human; mouse)", "T2 construct": "also called huBCMA-mFc", "T2 chain": "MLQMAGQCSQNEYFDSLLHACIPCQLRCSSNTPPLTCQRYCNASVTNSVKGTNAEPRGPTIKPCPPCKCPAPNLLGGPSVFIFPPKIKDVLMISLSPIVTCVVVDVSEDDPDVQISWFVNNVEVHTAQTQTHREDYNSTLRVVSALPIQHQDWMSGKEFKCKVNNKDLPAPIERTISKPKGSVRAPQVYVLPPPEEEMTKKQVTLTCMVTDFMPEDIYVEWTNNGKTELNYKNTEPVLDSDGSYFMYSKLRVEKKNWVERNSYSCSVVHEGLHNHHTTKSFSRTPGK", "assay": "indirect ELISA, coated antigen", "method": "Procedures: Human, mouse and monkey BCMA antigens were prepared into 0.5 μg/mL coating solutions with PBS buffer. The coating solutions were added to a microplate at 100 μL/well and incubated at 4° C. overnight. The residual coating solution was discarded before 3% BSA was added at 300 μL/well, and the plate was blocked for 3 h at room temperature. The microplate was washed once with PB ST (PBS containing 0.1% of TWEEN 20) at 300 μL/well. The human-mouse chimeric monoclonal antibodies were serially 3-fold diluted from 10 μg/mL to the 9th concentration. The dilutions were added to the microplate at 100 μL/well. After a 1-h incubation at room temperature, the microplate was washed thrice with PB ST at 300 μL/well. The mouse anti-human IgG Fc antibody [HRP] mAb was 25,000-fold diluted with 1% BSA-PBST and added at 100 μL/well. After another 1-h incubation at room temperature, the microplate was washed thrice with PBST at 300 μL/well and dried. The TMB chromogenic solution was added at 100 μL/well. After a 5-min reaction at room temperature, 2 M H₂SO₄ was added at 100 μL/well to terminate the reaction. The microplate was placed on a microplate reader (Molecular Devices, SPECTRA Max plus 384) and the absorbance OD450 value was read at 450 nm wavelength."}, "[3]": {"biological_target": "T1, human BCMA on cells (NCI-H929, U266B1, …)", "assay": "flow cytometry on U266B1 cells", "method": "Procedures: The cells were resuspended in PBS, and the cell density was adjusted to 2×10^5 cells/well. Human-mouse chimeric monoclonal antibodies were added to a 96-well plate at 50 μL/well and serially 3-fold diluted from 3000 nM to the 9th concentration. The plate was incubated for 1 h at 4° C. 150 μL of precooled PBS containing 1% of FBS was added into the 96-well plate after the co-incubation with the primary antibody was finished. The mixtures were centrifuged at 300×g for 5 min and the supernatants were discarded. The above procedures were repeated once. The fluorescent secondary antibody PE anti-human IgG Fc (Biolegend, 409304) was added at 80 μL/well. The plate was incubated at 4° C. for 30 min. 150 μL of precooled PBS containing 1% of FBS was added into the 96-well plate after the co-incubation with the secondary antibody was finished. The 96-well plate was centrifuged at 300×g for 5 min and the supernatants were discarded. The above procedures were repeated once. The cells were resuspended in 100 μL of PBS containing 1% of FBS and detected on a flow cytometry (BD Accuri™ C6)."}, "[4]": {"biological_target": "T3, recombinant human BCMA-his fusion protein (ACRO Biosystem, Cat. No. BCA-H522y) (human, UniProt Q02223 1-54)", "T3 construct": "extracellular domain; Bought protein; also called huBCMA-his; hu BCMA-his; not shown: His tag", "T3 sequence (looked up)": "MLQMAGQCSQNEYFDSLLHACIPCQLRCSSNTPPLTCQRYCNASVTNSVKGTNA", "assay": "competitive ELISA, coated huBCMA-his, competitor 83A10-biotin", "method": "The 96-well microplate was treated with 100 μL of 0.5 μg/mL huBCMA-his in PBS and incubated overnight at 4° C. The plate was then washed thrice with PBS washing buffer containing 0.1% of Tween-20 and blocked with 300 μL of PBS containing 1% of BSA for 2 h. 100 μL of each BCMA antibody was added to the plate. […] The plate was incubated at 37° C. for 1 h, and unbound secondary antibody was washed with PBS washing buffer containing 0.1% of Tween-20. The TMB chromogenic solution was added at 100 μL/well. After a 5-min reaction at room temperature, 2 M H₂SO₄ was added at 100 μL/well to terminate the reaction. The microplate was placed on a microplate reader (Molecular Devices, SPECTRA Max plus 384) and the absorbance OD450 value was read at 450 nm wavelength."}}}
{"binder": "human-mouse chimeric antibody c-mAb2 (antibody, human IgG1, V domains shown, not shown: human IgG1 heavy chain constant region, GenBank No. AK303185.1; human kappa light chain constant region, GenBank No. MG815648.1) VH: QVQLQQSDAELVKPGTSVKISCKVSGYTFTDHTIHWMKQRPEQGLEWIGYIYPRNGNTKYNEKFKGKATLTADKSSSTAYMHLNSLTSEDSAVYFCARYDYDGYFDVWGTGTTVTVSS VL: DVVMTQTPLSLPVSLGDQASISCRSSQSHVHSDGHTYLHWYLQKPGQSPELLIYKVSNRFSGVPDRFSGSGSGTDFTLKISRVEAEDLGVYFCSQNTHFPWTFGGGTKLEIK", "values": [{"measurement": "EC50", "setting": "[1]", "result": 5.7, "unit": "nM"}, {"measurement": "EC50", "setting": "[2]", "result": 0.427, "unit": "nM"}, {"measurement": "EC50", "setting": "[3]", "result": 14.7, "unit": "nM"}, {"measurement": "IC50", "setting": "[4]", "result": 8, "unit": "µg/mL"}]}
{"binder": "human-mouse chimeric antibody c-mAb3 (antibody, human IgG1, V domains shown, not shown: human IgG1 heavy chain constant region, GenBank No. AK303185.1; human kappa light chain constant region, GenBank No. MG815648.1) VH: EVQLQQSGPELVKPGASVKILCKASGYTITDYNMDWVKRSHGKSLEWIGNINPHNGGSIYNQKFKGKATLTVDKSSSTAFMELRSLTSEDTAVYYCARGDATLVLDYWGQGTSLTVSS VL: DIVLTQSPASLAVSLGQRATISCRASKSVSTSGLSYMHWYQQKPGQPPKVLIYLASNLESGVPARFSGSGSGTDFTLNIHPVEEEDAATYYCQHSRELPPTFGAGTKLELK", "values": [{"measurement": "EC50", "setting": "[1]", "result": 8.25, "unit": "nM"}, {"measurement": "EC50", "setting": "[2]", "result": 0.794, "unit": "nM"}, {"measurement": "EC50", "setting": "[3]", "result": 81.5, "unit": "nM"}, {"measurement": "IC50", "setting": "[4]", "result": 1, "unit": "µg/mL"}]}
